We go through 6 substances from PMC10234438.

The test system of the first data set is IMP3 (GST-/His-tagged) (human). The experiment in a line: EMSA. To be noted: EMSA: 10 mM Tris-HCl pH 7.5, 150 mM NaCl, 0.5 mM EDTA, 0.5 mM DTT, 0.1% NP-40, 5% glycerol, RNaseOUT, 1 ug tRNA, 1 ug BSA; 5 nM RNA; 30 min at 25 C, then 5 min …. For orientation: A gel shift assay detects complexes by their altered migration in electrophoresis.
What is called Kd is the constant that tells how readily two partners part at equilibrium. A higher Kd goes with a looser complex. As to 101-mer linear, the Kd is 9.3 nM.

ANKRD17 linear showed a Kd of 8.7 nM.

all-UG linear displayed a Kd of 48.8 nM.

Still in this data set, the particulars now being: circular (T4 RNA ligase); EMSA: 10 mM Tris-HCl pH 7.5, 150 mM NaCl, 0.5 mM EDTA, 0.5 mM DTT, 0.1% NP-40, 5% glycerol, RNaseOUT, 1 ug tRNA, 1 ug BSA; 5 nM RNA; 30 min at 25 C, then 5 min ….
In the case of 101-mer circRNA, the Kd worked out at 10.4 nM.

As to ANKRD17 circRNA, the Kd was determined as 8.5 nM.

In the case of all-UG circRNA, the Kd was 60.3 nM.
